Article PMC3310817, “Liver X Receptors Regulate the Transcriptional Activity of the Glucocorticoid Receptor: Implications for the Carbohydrate Metabolism”

B1: G6Pase GRE wt (dsDNA)
DNA 1: GCACTGTCAAGCAGTGTGCCCAAGTTAATAATT
DNA 2: AATTATTAACTTGGGCACACTGCTTGACAGTGC
B2: Classic GRE wt (dsDNA)
DNA 1: AGCTGGTACAAACTGTTCTAGCT
DNA 2: AGCTAGAACAGTTTGTACCAGCT

Tests used:
[1] = target: T1, LXRα (recombinant, Active Motif);RXRα (recombinant, Active Motif) (Homo sapiens;Homo sapiens, UniProt Q13133;P19793 1-447;1-462, |); test: EMSA; complex C; EMSA: 10 mM HEPES pH 8.0, 0.1 mM EDTA, 2 mM DTT, 50 mM NaCl, 5 mM MgCl2, 50 mM KCl, 4 mM spermidine, 4% Ficoll, 1 ug poly(dI-dC); preincubation 10 min 4 C, then 15 min room temperature with probe; settings: protein: commercial;commercial; tags: ;; copies: 1;1; label: 32P; blunt
[2] = target: T1, LXRα (recombinant, Active Motif);RXRα …; test: EMSA; GW3965 (enhances binding); EMSA: 10 mM HEPES pH 8.0, 0.1 mM EDTA, 2 mM DTT, 50 mM NaCl, 5 mM MgCl2, 50 mM KCl, 4 mM spermidine, 4% Ficoll, 1 ug poly(dI-dC); preincubation 10 min 4 C, then 15 min room temperature with probe; settings: protein: commercial;commercial; tags: ;; copies: 1;1; label: 32P; blunt

T1 sequence (Q13133 whole entry, chain 1 of 2): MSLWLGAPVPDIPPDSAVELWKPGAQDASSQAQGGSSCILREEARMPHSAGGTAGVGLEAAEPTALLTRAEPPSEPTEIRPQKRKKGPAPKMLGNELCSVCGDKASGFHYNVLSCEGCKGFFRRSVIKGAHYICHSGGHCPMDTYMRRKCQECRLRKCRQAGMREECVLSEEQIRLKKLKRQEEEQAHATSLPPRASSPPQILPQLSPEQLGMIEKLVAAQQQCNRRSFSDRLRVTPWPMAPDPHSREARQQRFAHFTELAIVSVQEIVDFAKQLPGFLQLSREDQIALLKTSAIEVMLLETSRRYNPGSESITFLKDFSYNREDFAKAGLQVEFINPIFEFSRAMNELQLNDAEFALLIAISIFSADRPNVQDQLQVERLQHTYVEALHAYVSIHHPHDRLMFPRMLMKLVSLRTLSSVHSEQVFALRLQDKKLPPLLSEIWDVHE
T1 sequence (P19793 whole entry, chain 2 of 2): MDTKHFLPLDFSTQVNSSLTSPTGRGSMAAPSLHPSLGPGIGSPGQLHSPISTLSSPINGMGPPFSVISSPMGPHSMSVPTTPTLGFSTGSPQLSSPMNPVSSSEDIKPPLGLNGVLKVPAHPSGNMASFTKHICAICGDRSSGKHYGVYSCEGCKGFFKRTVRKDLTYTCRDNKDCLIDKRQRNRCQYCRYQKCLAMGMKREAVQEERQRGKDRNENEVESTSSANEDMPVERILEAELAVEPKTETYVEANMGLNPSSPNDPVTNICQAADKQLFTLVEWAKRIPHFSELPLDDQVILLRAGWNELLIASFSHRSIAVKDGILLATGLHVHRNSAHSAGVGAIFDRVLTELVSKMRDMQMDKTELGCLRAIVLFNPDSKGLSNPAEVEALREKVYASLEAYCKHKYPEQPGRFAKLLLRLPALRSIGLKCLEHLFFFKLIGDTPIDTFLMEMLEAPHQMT

| Binder | binding result [1] | binding result [2] |
| --- | --- | --- |
| B1 | binds | – |
| B2 | – | binds |
